Measurements: patent US9534059B2, “TIKI inhibitors” (Children's Medical Center Corporation, priority 2012, dated 2017)

Tests used:
[1] = tested on: Tiki1 and Dkk1 expression; test: RT-PCR of Tiki1 and Dkk1 expression in treated whole embryos (FIG. 2M); format: in vivo, Xenopus
Experimental: (M) Tiki1 expression is regulated by maternal Wnt signaling. Whole embryos were used for LiCl or UV treatment. 20 or 40 pg of Xwnt8 mRNA was injected into the ventral marginal zone (VMZ) at 4 to 8-cell stage and the VMZ was dissected at stage 10.5 for RT-PCR. ΔNTCF mRNA (1 or 2 ng) was injected into the dorsal marginal zone (DMZ) at 4 to 8-cell stage and the DMZ was dissected at stage 10.5 for RT-PCR. Con: control.
Organizer formation requires maternal Wnt/β-catenin signaling (De Robertis and Kuroda, 2004; Harland and Gerhart, 1997), which is necessary and sufficient for Tiki1 (and Dkk1) expression. Ectopic Xwnt8 induced Tiki1 and Dkk1 expression ventrally, whereas a dominant negative TCF (T cell factor, a DNA-binding transcription factor that mediates beta-catenin signaling), ΔNTCF (Molenaar et al., 1996), suppressed the endogenous Tiki1 and Dkk1 dorsal expression (FIG. 2M). Furthermore LiCl, which stabilizes β-catenin thus dorsalizes embryos, induced Tiki1 and Dkk1 expression, while ultraviolet irradiation, which through microtubule disruption causes defective maternal Wnt signaling thus ventralizes embryos (Harland and Gerhart, 1997), suppressed Tiki1 and Dkk1 expression (FIG. 2M).

[2] = tested on: Wnt3a; test: TOPFLASH assay of TIKI2N mutants co-transfected with Wnt3a in HEK293T cells; format: cell-based, human; conditions: 5, 2.5, 1.25 and 0.612 ng plasmid with Wnt3a 20 ng
Experimental: FIG. 8B. Bar graph showing the results of a TOPFLASH assay testing TIKI2 mutations in Human TIKI2N construct (no transmembrane domain). Decreasing doses of 5, 2.5, 1.25 and 0.612 ng of the indicated TIKI2N expression plasmid were cotransfected with Wnt3a (20 ng) in HEK293T cells.
HEK293T, HeLa, L and L-Wnt3a cells (from ATCC) were maintained in Dulbecco's modified Eagle's medium (DMEM; Invitrogen) supplemented with 10% fetal bovine serum (FBS) and 1% penicillin-streptomycin-glutamine (Invitrogen). Lipofectamine 2000 (Invitrogen) or Fugene6 (Roche) was used for all cell transfections. L and L-Wnt3a cells that stably express TIKI2 were generated by infecting cells with retroviruses and selected by puromycin. L cells stably expressing Wnt3a(FLAG) were established by transfecting L cells with a Wnt3a(FLAG) expressing vector and selected with neomycine. L cells stably expressing both Wnt3a(FLAG) and TIKI2 were also generated. TOPFLASH reporter assay was performed as previously described (MacDonald et al., 2008).
A Wnt-responsive reporter (TOP-FLASH) assay was performed to test mutations at T56A, H58A, E85A, E205A, H256A, R303A, H331A in a Human TIKI2N construct (no transmembrane domain). Decreasing doses of 5, 2.5, 1.25 and 0.612 ng of the indicated TIKI2N expression plasmid were co-transfected with Wnt3a (20 ng) in HEK293T cells. […] T56A, H256A, and R303A had no effect on TIM activity, and so are likely to be less important sites for function.

[Cl-].[Li+] [LiCl]
Tiki1 and Dkk1 expression [1]: induced

B1: T56A: alanine mutation in Human TIKI2N construct (no transmembrane domain) (protein, UniProt A6NFA1 20-494, looked up, variant T56A)
extracellular domain: RPQPPDGGQCRPPGSQRDLNSFLWTIRRDPPAYLFGAIHVPYTRVWDFIPDNSKAAFQASTRVYFELDLTDPYTISALASCQLLPHGENLQDVLPHELYWRLKRHLDYVKLMMPSWMTPAQRGKGLYADYLFNAIAGNWERKRPVWVMLMVNSLTERDVRFRGVPVLDLYLAQQAEKMKKTTGAVEQVEEQCHPLNNGLNFSQVLFALNQTLLQQESVRAGSLQASYTTEDLIKHYNCGDLSAVIFNHDTSQLPNFINTTLPPHEQVTAQEIDSYFRQELIYKRNERMGKRVMALLRENEDKICFFAFGAGHFLGNNTVIDILRQAGLEVDHTPAGQAIHSPAPQSPAPSPEGTSTSPAPVTPAAAVPEAPSVTPTAPPEDEDPALSPHLLLPDSLSQLEEFGRQRKWHKRQSTHQRPRQFNDLWVRIEDSTTASPPPLPLQPTHSSGTAKPPFQLSDQLQQQDPPGPASSSAPT
modifications: extracellular domain
TIKI activity of TIKI2N mutants (inhibition of Wnt3a-induced TOPFLASH) [2]: no effect

B2: R303A: alanine mutation in Human TIKI2N construct (no transmembrane domain) (protein, UniProt A6NFA1 20-494, looked up, variant R303A)
extracellular domain: RPQPPDGGQCRPPGSQRDLNSFLWTIRRDPPAYLFGTIHVPYTRVWDFIPDNSKAAFQASTRVYFELDLTDPYTISALASCQLLPHGENLQDVLPHELYWRLKRHLDYVKLMMPSWMTPAQRGKGLYADYLFNAIAGNWERKRPVWVMLMVNSLTERDVRFRGVPVLDLYLAQQAEKMKKTTGAVEQVEEQCHPLNNGLNFSQVLFALNQTLLQQESVRAGSLQASYTTEDLIKHYNCGDLSAVIFNHDTSQLPNFINTTLPPHEQVTAQEIDSYFRQELIYKANERMGKRVMALLRENEDKICFFAFGAGHFLGNNTVIDILRQAGLEVDHTPAGQAIHSPAPQSPAPSPEGTSTSPAPVTPAAAVPEAPSVTPTAPPEDEDPALSPHLLLPDSLSQLEEFGRQRKWHKRQSTHQRPRQFNDLWVRIEDSTTASPPPLPLQPTHSSGTAKPPFQLSDQLQQQDPPGPASSSAPT
modifications: extracellular domain
TIKI activity of TIKI2N mutants (inhibition of Wnt3a-induced TOPFLASH) [2]: no effect
